Test results from US20170101476A1 (Novartis, published 2017).
Where two headings read alike, the source gives them in different places.

Assays:
Experiment in all cases: cell-based or functional assay
[1] = biological target: T1, Cynomolgus CXCR2 (cynomolgus, UniProt Q28519 3-353 (rhesus entry))
T1 chain: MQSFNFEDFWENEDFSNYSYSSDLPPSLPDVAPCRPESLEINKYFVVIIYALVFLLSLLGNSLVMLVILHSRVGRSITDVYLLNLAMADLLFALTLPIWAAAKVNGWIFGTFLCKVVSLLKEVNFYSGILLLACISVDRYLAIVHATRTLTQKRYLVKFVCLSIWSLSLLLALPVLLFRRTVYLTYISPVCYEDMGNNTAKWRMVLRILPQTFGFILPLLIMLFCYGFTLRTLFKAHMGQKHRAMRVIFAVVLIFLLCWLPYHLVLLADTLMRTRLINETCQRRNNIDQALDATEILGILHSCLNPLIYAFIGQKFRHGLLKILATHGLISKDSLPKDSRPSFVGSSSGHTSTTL

[2] = biological target: T2, Human CXCR2 (human, UniProt P25025 1-360)
T2 sequence: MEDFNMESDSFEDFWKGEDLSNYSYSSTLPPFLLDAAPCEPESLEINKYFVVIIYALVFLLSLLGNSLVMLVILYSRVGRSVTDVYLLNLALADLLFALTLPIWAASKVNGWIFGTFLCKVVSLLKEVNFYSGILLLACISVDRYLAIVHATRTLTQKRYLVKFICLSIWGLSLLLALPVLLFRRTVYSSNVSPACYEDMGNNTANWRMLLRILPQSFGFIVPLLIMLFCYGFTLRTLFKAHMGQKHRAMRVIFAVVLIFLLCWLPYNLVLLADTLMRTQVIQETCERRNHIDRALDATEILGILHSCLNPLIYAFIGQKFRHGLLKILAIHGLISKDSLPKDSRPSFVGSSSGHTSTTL

[3] = biological target: T2, Human CXCR2; remark: listed apart in the source
[4] = biological target: T2, Human CXCR2; remark: listed apart in the source

B1: CXCR20022 (VHH, not shown: small tags and cut ends)
chain: EVQLVESGGGLVQAGGSLRLSCAASGRTFSDYAMGWFRQAPGKEREFVAAITWNGGRVFYTASVKGRFTISRDNAKNTMYLQMNSLKPEDTAVYYCAADKDRRTDYLGHPVAYWGQGTQVTVSSGGGGSGGGGSGGGGSGGGGSGGGGSGGGGSGGGGSEVQLVESGGGLVQAGGSLRLSCAASGRTFSDYAMGWFRQAPGKEREFVAAITWNGGRVFYTASVKGRFTISRDNAKNTMYLQMNSLKPEDTAVYYCAADKDRRTDYLGHPVAYWGQGTQVTVSS
B1 was tested, and the “FLIPR IC50, GRO-α induced intracellular calcium release” value [1] was 8.64 nM, the “FLIPR IC50, GRO-α induced intracellular calcium release” value [2] was 9.34 nM and the “[35S]GTPγS % inhibition of max, GRO-α” value [3] was 100%. For the same binder, the “[35S]GTPγS accumulation IC50, GRO-α” value [3] was 28.5 nM.

B2: CXCR20032 (bispecific antibody, not shown: small tags and cut ends)
chain: EVQLVESGGELVQPGGSLRLSCAASGSILTINAMGWYRQAPGKQRELVVRRTRGGSTTYQDSVKGRFTISADIAKKTMYLQMNSLKPEDTAVYYCMLDDRGGVYWGQGTQVTVSSGGGGSGGGGSGGGGSGGGGSGGGGSGGGGSGGGGSEVQLVESGGGLVQAGGSLRLSCAASGRTFSDYAMGWFRQAPGKEREFVAAITWNGGRVFYTASVKGRFTISRDNAKNTMYLQMNSLKPEDTAVYYCAADKDRRTDYLGHPVAYWGQGTQVTVSS
In the case of B2, the “FLIPR IC50, GRO-α induced intracellular calcium release” value [1] is reported as 3.65 nM, the “FLIPR IC50, GRO-α induced intracellular calcium release” value [2] is reported as 14.7 nM and the “[35S]GTPγS % inhibition of max, ENA-78” value [3] is reported as 100%. For the same binder, the “[35S]GTPγS % inhibition of max, IL-8” value [3] was 100%, the “[35S]GTPγS accumulation IC50, ENA-78” value [3] was 0.116 nM and the “[35S]GTPγS accumulation IC50, IL-8” value [3] was 0.997 nM.

B3: CXCR20023 (bispecific antibody, not shown: small tags and cut ends)
chain: EVQLVESGGGLVQAGGSLRLSCAASGRTFSDYAMGWFRQAPGKEREFVAAITWNGGRVFYTASVKGRFTISRDNAKNTMYLQMNSLKPEDTAVYYCAADKDRRTDYLGHPVAYWGQGTQVTVSSGGGGSGGGGSGGGGSGGGGSGGGGSGGGGSGGGGSEVQLVESGGGLVQPGGSLRLSCVASGRIFSSNAMGWFRQAPGKEREFVAAITWRSGGSAYYADSAKGRFTISRDNAKNTVYLQMNSLKPEDTAVYYCAAGGSSWLSFPPDYWGQGTQVTVSS
For B3, the “FLIPR IC50, GRO-α induced intracellular calcium release” value [1] was 12 nM, the “FLIPR IC50, GRO-α induced intracellular calcium release” value [2] was 14.8 nM and the “[35S]GTPγS % inhibition of max, GRO-α” value [3] was 100%. For the same binder, the “[35S]GTPγS accumulation IC50, GRO-α” value [3] was 26.6 nM.

B4: CXCR20021 (bispecific antibody, not shown: small tags and cut ends)
chain: EVQLVESGGGLVQAGESLRLSCAASGSTFDFKVMGWYRQPPGKQREGVAAIRLSGNMHYAESVKGRFTISKANAKNTVYLQMNSLRPEDTAVYYCKVNIRGQDYWGQGTQVTVSSGGGGSGGGGSGGGGSGGGGSGGGGSGGGGSGGGGSEVQLVESGGGLVQPGGSLRLSCVASGRIFSSNAMGWFRQAPGKEREFVAAITWRSGGSAYYADSAKGRFTISRDNAKNTVYLQMNSLKPEDTAVYYCAAGGSSWLSFPPDYWGQGTQVTVSS
B4 was tested, and the “FLIPR IC50, GRO-α induced intracellular calcium release” value [1] was 2.31 nM, the “FLIPR IC50, GRO-α induced intracellular calcium release” value [2] was 7.32 nM and the “[35S]GTPγS % inhibition of max, ENA-78” value [3] was 100%. For the same binder, the “[35S]GTPγS % inhibition of max, GRO-α” value [3] was 100%, the “[35S]GTPγS % inhibition of max, IL-8” value [3] was 100% and the “[35S]GTPγS accumulation IC50, ENA-78” value [3] was 0.787 nM. The “[35S]GTPγS accumulation IC50, GRO-α” value [3] was 0.551 nM and the “[35S]GTPγS accumulation IC50, IL-8” value [3] was 0.827 nM.

B5: 137B07 (VHH, not shown: small tags and cut ends)
VHH: EVQLVESGGGLVQPGGSVRLSCVASGIIFRLSALGWTRQGPGKAREWVAGINSDGTTNYADPVKGRFTISRDNAKNTIYLHMDMLKPEDTAVYYCASGKYRGQGTQVTVSS
B5 was tested, and the “FLIPR IC50, GRO-α induced intracellular calcium release” value [4] was 6.71 nM.
